Laboratory results taken from article PMC7725318, “Structures of three MORN repeat proteins and a re-evaluation of the proposed lipid-binding properties of MORN repeats” (PLoS ONE, 2020).

Legend:
[1] = biological target: TbMORN1(10–15) (Trypanosoma brucei brucei strain Lister 427); assay: SEC-MALS; Superdex 200 Increase 10/300 GL; 20 mM Tris-HCl pH 8.5, 200 mM NaCl, 2% (w/v) glycerol, 0.5 mM DTT; 100 μl of 2–4 mg/ml protein applied
[2] = biological target: TbMORN1(7–15) (Trypanosoma brucei brucei strain Lister 427); assay: as above
[3] = biological target: TbMORN1(2–15) (Trypanosoma brucei brucei strain Lister 427); assay: as above
[4] = biological target: the molecule itself; assay: crystal structure; sitting-drop vapour diffusion at 22°C; TbMORN1(7–15) in forms P21 and C2 and TgMORN1(7–15) in P43212 as extended dimers; PfMORN1(7–15) in C2221 as a V-shaped dimer with Zn2+

## TbMORN1(10–15) (domain or fragment)
[1]
  stoichiometry N: 2

## TbMORN1(7–15) (domain or fragment)
[2]
  stoichiometry N: 2

## TbMORN1(2–15) (domain or fragment)
[3]
  stoichiometry N: 2

B1: TgMORN1(7–15) (domain or fragment, Toxoplasma gondii)
chain: EKYEGDWVNGKMHGHGKYIYSDGGVYEGDWIDGKMHGKGTYVFPNGNVYEGEWAHDMKDGYGVLTYQNGEKYEGYWKQDKVHGKGTLTYTRGDKYIGDWMDAKKDGEGELIYANGDRFKGQWADDRANGFGVFTYANGNRYEGEWTDDKRHGRGVFYCAEDGSAYEGEFVGGRKEGNGILRLATGHQLEGTWSGGQLVRVTSFVFAQDSPWLNVDL
notes: TgMORN1, Toxoplasma gondii (1092 bp open reading frame), MORN repeats 7–15; also called Toxoplasma gondii MORN1(7–15); source: E. coli Rosetta 2 (DE3)pLysS, purified; not shown: His10, N-terminal, cleaved
[4]
  binding result: binds
